Here are results for 14 molecules from patent publication US20240417469A1 (CONCEPT TO MEDICINE BIOTECH, published 2024).

Assay [1] deals with T1, human CD3 on cells (human PBMC; Jurkat TCR/CD3 NFAT reporter cells) (human, UniProt P07766 23-207; P04234 22-171; P09693 23-182). Nature of the assay: cell-based or functional assay.
Assay [2] deals with T2, recombinant CD3D&E protein (human CD3-his tag) (human, UniProt P04234 22-105; P07766 23-126, limits assumed).
T2 construct: Analyte in Biacore; also called CD3D&E-His; CD3d&ε-His
Nature of the assay: SPR Biacore, Ab captured on Protein A.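 Further: humanized antibodies on a Protein A chip, human CD3-his analyte flowed over in serial dilutions for 3 min, dissociation tracked 120–360 s on a Biacore T200.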 Background: Surface plasmon resonance follows binding to a sensor surface in real time, without labels.

Assay [3] concerns the target T3, human CD3 protein (human, UniProt P07766 23-126; P04234 22-105).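 Further: binding to plate-immobilized human CD3 protein, bound antibody detected with peroxidase-labelled anti-human IgG and TMB, read as absorbance at 450 nm.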
T3 construct: ELISA coating protein; also called Human CD3D & CD3E Heterodimer Protein
In words: ELISA, plate-coated CD3. (In general: In an ELISA, binding on a coated surface is turned into a signal by an enzyme label.)

The target of assay [4] is T1, human CD3 on cells (human PBMC; Jurkat …). Nature of the assay: cell-based or functional assay. This is another data set of the same source.

Where only a bound is given, the exact number is not on record here.

T2 sequence (P04234 22-105 limits assumed, chain 1 of 2): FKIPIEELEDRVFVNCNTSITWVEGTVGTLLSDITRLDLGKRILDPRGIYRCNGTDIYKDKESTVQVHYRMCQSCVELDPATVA
T2 sequence (P07766 23-126 limits assumed, chain 2 of 2): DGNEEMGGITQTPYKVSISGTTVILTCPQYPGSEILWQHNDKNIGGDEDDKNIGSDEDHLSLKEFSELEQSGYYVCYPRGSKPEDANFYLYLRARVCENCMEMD
T1 sequence (P07766 23-207, chain 1 of 3): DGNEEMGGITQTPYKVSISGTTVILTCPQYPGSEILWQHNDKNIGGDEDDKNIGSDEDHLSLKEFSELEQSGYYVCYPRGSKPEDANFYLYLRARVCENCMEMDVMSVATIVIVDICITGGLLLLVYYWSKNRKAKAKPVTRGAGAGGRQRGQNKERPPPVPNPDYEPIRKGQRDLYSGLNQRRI
T1 sequence (P04234 22-171, chain 2 of 3): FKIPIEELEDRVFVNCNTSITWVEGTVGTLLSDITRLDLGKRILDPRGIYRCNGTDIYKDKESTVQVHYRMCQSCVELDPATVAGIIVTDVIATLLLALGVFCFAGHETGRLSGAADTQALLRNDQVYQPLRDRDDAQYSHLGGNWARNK
T1 sequence (P09693 23-182, chain 3 of 3): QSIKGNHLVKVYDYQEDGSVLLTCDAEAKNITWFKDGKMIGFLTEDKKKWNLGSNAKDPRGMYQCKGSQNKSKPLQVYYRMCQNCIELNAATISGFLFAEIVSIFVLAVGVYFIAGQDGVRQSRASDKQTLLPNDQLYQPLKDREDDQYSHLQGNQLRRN
T3 sequence (P07766 23-126 limits assumed, chain 1 of 2): as the sequence (P07766 23-126 limits assumed, chain 2 of 2) above
T3 sequence (P04234 22-105 limits assumed, chain 2 of 2): as the sequence (P04234 22-105 limits assumed, chain 1 of 2) above

B1: Hu153A6B1-9 (antibody, V domains shown)
VH: EVQLQESGPGLVKPSETLSLTCTVSGGSISSYNIHWVRQPPGKGLEWMGRIRYNGDTSYNSALKSRLTISRDTSKNQFSLKLSSVTAADTAVYYCARGPYGGSREPLFDYWGQGTMVTVSS
VL: DIQMTQSPSSLSASVGDRVTITCKTSQNINKYLNWFQQKPGKAPKLLIYTTNNLQTGIPSRFSGSGSGTDFTLTISSLQPEDFATYYCLQHGSGYTFGQGTKLEIK
notes: humanized mAb
In general, Kd refers to a measure of binding affinity in units of concentration. What is called koff is a measure of how fast the partners let go of each other. The kon is a measure of how fast the partners come together. The term EC50 denotes the concentration giving half of the maximal effect. The low end stands for higher potency in that assay, the high end for lower potency in that assay. In the case of B1, in assay [1], the “% of SP34” value worked out at 73.6% and the Emax was 4310. For the same molecule, in assay [2], the dissociation constant (Kd) stood at 61.7 nM, the koff stood at 0.0344 s⁻¹ and the kon amounted to 558000 M⁻¹ s⁻¹. Further, in assay [3], a half-maximal effect (EC50) was put at 3.35 ng/mL. In addition, the “CD3-NFAT Activity by CD3 mAb” value in assay [4] was over 50 % SP34.

B2: Hu192A7B9-23 (antibody, V domains shown)
VH: EVQLQESGPGLVKPSETLSLTCTVSGFSISSYNVHWVRQPPGKGLEWMGRMRYNGDTSYNSALKSRLTISRDTSKNQVSLKLSSVTAADTAVYYCTRGPRGGYYSALFDYWGQGTMVTVSS
VL: DIQMTQSPSSLSASVGDRVTITCKASQNINRYLNWYQQKPGKAPKVLISIANSLQTGIPSRFSGSGSGTDFTLTISSLQPEDFATYFCLQHNSWYTFGQGTKLEIK
notes: humanized mAb
With B2, in assay [2], the Kd was 12.3 nM, the koff is 0.000862 s⁻¹ and the kon was determined as 70200 M⁻¹ s⁻¹. The EC50 in assay [3] was 15.8 ng/mL. For the same molecule, the “CD3-NFAT Activity by CD3 mAb” value in assay [4] was over 50 % SP34.

B3: Hu192A7B9-20 (antibody, V domains shown)
VH: EVQLQESGPGLVKPSETLSLTCTVSGGSISSYNVHWVRQPPGKGLEWIGRMRYNGDTSYNSALKSRVTISRDTSKNQFSLKLSSVTAADTAVYYCARGPRGGYYSALFDYWGQGTMVTVSS
VL: DIQMTQSPSSLSASVGDRVTITCKASQNINRYLNWYQQKPGKAPKVLISIANSLQTGIPSRFSGSGSGTDFTLTISSLQPEDFATYFCLQHNSWYTFGQGTKLEIK
notes: humanized mAb
As for B3, in assay [2], the Kd worked out at 60.3 nM, the koff came out at 0.00561 s⁻¹ and the kon was 93100 M⁻¹ s⁻¹. In addition, the EC50 in assay [3] was found to be 5.15 ng/mL. Moreover, in assay [4], the “CD3-NFAT Activity by CD3 mAb” value is over 50 % SP34.

B4: Hu192A7B9-17 (antibody, V domains shown)
VH: EVQLQESGPGLVKPSETLSLTCTVSGFSISSYNVHWVRQPPGKGLEWMGRMRYNGDTSYNSALKSRLTISRDTSKNQVSLKLSSVTAADTAVYYCTRGPRGGYYSALFDYWGQGTMVTVSS
VL: DIQMTQSPSSLSASVGDRVTITCKASQNINRYLNWYQQKPGKAPKLLISIANSLQTGIPSRFSGSGSGTDFTLTISSLQPEDFATYYCLQHNSWYTFGQGTKLEIK
notes: humanized mAb
For B4, in assay [2], the Kd was found to be 64.8 nM, the koff is 0.00532 s⁻¹ and the kon turned out to be 82200 M⁻¹ s⁻¹. This molecule displayed an EC50 in assay [3] of 4.46 ng/mL. Besides, the “CD3-NFAT Activity by CD3 mAb” value in assay [4] was over 50 % SP34.

B5: Hu192A7B9-24 (antibody, V domains shown)
VH: EVQLQESGPGLVKPSETLSLTCTVSGFSLTSYNVHWVRQPPGKGLEWMGRMRYNGDTSYNSALKSRLTISRDTSKNQVSLKLSSVTAADTAVYYCTRGPRGGYYSALFDYWGQGTMVTVSS
VL: DIQMTQSPSSLSASVGDRVTITCKASQNINRYLNWYQQKPGKAPKVLISIANSLQTGIPSRFSGSGSGTDFTLTISSLQPEDFATYFCLQHNSWYTFGQGTKLEIK
notes: humanized mAb
Take B5: in assay [2], the Kd turned out to be 9.21 nM, the koff turned out to be 0.000594 s⁻¹ and the kon came out at 64500 M⁻¹ s⁻¹. Also, the EC50 in assay [3] worked out at 20.2 ng/mL. Moreover, in assay [4], the “CD3-NFAT Activity by CD3 mAb” value is over 50 % SP34.

B6: Hu192A7B9-14 (antibody, V domains shown)
VH: EVQLQESGPGLVKPSETLSLTCTVSGGSISSYNVHWVRQPPGKGLEWIGRMRYNGDTSYNSALKSRVTISRDTSKNQFSLKLSSVTAADTAVYYCARGPRGGYYSALFDYWGQGTMVTVSS
VL: DIQMTQSPSSLSASVGDRVTITCKASQNINRYLNWYQQKPGKAPKLLISIANSLQTGIPSRFSGSGSGTDFTLTISSLQPEDFATYYCLQHNSWYTFGQGTKLEIK
notes: humanized mAb
For B6, in assay [2], the Kd was found to be 86.7 nM, the koff amounted to 0.0179 s⁻¹ and the kon was found to be 206000 M⁻¹ s⁻¹. The molecule also yielded an EC50 in assay [3] of 5.02 ng/mL. Further, the “CD3-NFAT Activity by CD3 mAb” value in assay [4] was over 50 % SP34.

B7: Hu192A7B9-21 (antibody, V domains shown)
VH: EVQLQESGPGLVKPSETLSLTCTVSGGSISSYNVHWVRQPPGKGLEWMGRMRYNGDTSYNSALKSRLTISRDTSKNQFSLKLSSVTAADTAVYYCARGPRGGYYSALFDYWGQGTMVTVSS
VL: DIQMTQSPSSLSASVGDRVTITCKASQNINRYLNWYQQKPGKAPKVLISIANSLQTGIPSRFSGSGSGTDFTLTISSLQPEDFATYFCLQHNSWYTFGQGTKLEIK
notes: humanized mAb
With B7, in assay [2], the dissociation constant (Kd) is 55.1 nM, the koff is 0.00499 s⁻¹ and the kon worked out at 90600 M⁻¹ s⁻¹. Also, the EC50 in assay [3] was found to be 5.46 ng/mL. The “CD3-NFAT Activity by CD3 mAb” value in assay [4] was over 50 % SP34.

B8: Hu192A7B9-19 (antibody, V domains shown)
VH: EVQLQESGPGLVKPSETLSLTCTVSGGSISSYNVHWIRQPPGKGLEWIGRMRYNGDTSYNSALKSRVTISVDTSKNQFSLKLSSVTAADTAVYYCARGPRGGYYSALFDYWGQGTMVTVSS
VL: DIQMTQSPSSLSASVGDRVTITCKASQNINRYLNWYQQKPGKAPKVLISIANSLQTGIPSRFSGSGSGTDFTLTISSLQPEDFATYFCLQHNSWYTFGQGTKLEIK
notes: humanized mAb
In the case of B8, in assay [2], the Kd came out at 34.5 nM, the koff is 0.00543 s⁻¹ and the kon came to 157000 M⁻¹ s⁻¹. In assay [3], this molecule yielded an EC50 of 4.98 ng/mL. Moreover, the “CD3-NFAT Activity by CD3 mAb” value in assay [4] is over 50 % SP34.

B9: Hu192A7B9-18 (antibody, V domains shown)
VH: EVQLQESGPGLVKPSETLSLTCTVSGFSLTSYNVHWVRQPPGKGLEWMGRMRYNGDTSYNSALKSRLTISRDTSKNQVSLKLSSVTAADTAVYYCTRGPRGGYYSALFDYWGQGTMVTVSS
VL: DIQMTQSPSSLSASVGDRVTITCKASQNINRYLNWYQQKPGKAPKLLISIANSLQTGIPSRFSGSGSGTDFTLTISSLQPEDFATYYCLQHNSWYTFGQGTKLEIK
notes: humanized mAb
In the case of B9, in assay [2], the Kd is 56 nM, the koff turned out to be 0.00317 s⁻¹ and the on-rate (kon) is 56500 M⁻¹ s⁻¹. Moreover, in assay [3], the midpoint of the response, the EC50, lay at 8.83 ng/mL. Moreover, in assay [4], the “CD3-NFAT Activity by CD3 mAb” value was over 50 % SP34.

B10: Hu192A7B9-12 (antibody, V domains shown)
VH: EVQLQESGPGLVKPSETLSLTCTVSGFSLTSYNVHWVRQPPGKGLEWMGRMRYNGDTSYNSALKSRLTISRDTSKNQVSLKLSSVTAADTAVYYCTRGPRGGYYSALFDYWGQGTMVTVSS
VL: DIQMTQSPSSLSASVGDRVTITCKASQNINRYLNWYQQKPGKAPKLLISIANSLQTGVPSRFSGSGSGTDFTLTISSLQPEDFATYYCLQHNSWYTFGQGTKLEIK
notes: humanized mAb
For the molecule B10, in assay [2], the dissociation constant (Kd) amounted to 58.1 nM, the koff stood at 0.00317 s⁻¹ and the kon worked out at 54600 M⁻¹ s⁻¹. The molecule further yielded an EC50 in assay [3] of 9.74 ng/mL. The “CD3-NFAT Activity by CD3 mAb” value in assay [4] is over 50 % SP34.

B11: Hu192A7B9-22 (antibody, V domains shown)
VH: EVQLQESGPGLVKPSETLSLTCTVSGGSISSYNVHWVRQPPGKGLEWMGRMRYNGDTSYNSALKSRLTISRDTSKNQFSLKLSSVTAADTAVYYCTRGPRGGYYSALFDYWGQGTMVTVSS
VL: DIQMTQSPSSLSASVGDRVTITCKASQNINRYLNWYQQKPGKAPKVLISIANSLQTGIPSRFSGSGSGTDFTLTISSLQPEDFATYFCLQHNSWYTFGQGTKLEIK
notes: humanized mAb
Turning to B11, in assay [2], the Kd worked out at 55 nM, the koff is 0.00462 s⁻¹ and the kon turned out to be 83900 M⁻¹ s⁻¹. Also, a half-maximal response in assay [3] (EC50) required 7.12 ng/mL. Moreover, in assay [4], the “CD3-NFAT Activity by CD3 mAb” value was over 50 % SP34.

B12: Hu153A6B1-1 (antibody, V domains shown)
VH: EVQLQESGPGLVKPSETLSLTCTVSGGSISSYNIHWIRQPPGKGLEWIGRIRYNGDTSYNSALKSRVTISVDTSKNQFSLKLSSVTAADTAVYYCARGPYGGSREPLFDYWGQGTMVTVSS
VL: DIQMTQSPSSLSASVGDRVTITCKTSQNINKYLNWYQQKPGKAPKLLIYTTNNLQTGVPSRFSGSGSGTDFTLTISSLQPEDFATYYCLQHGSGYTFGQGTKLEIK
notes: humanized mAb
Regarding B12, in assay [1], the “% of SP34” value is 19.8% and the Emax stood at 1160. In assay [2], the Kd is 8.81 nM, the koff is 0.00391 s⁻¹ and the kon is 444000 M⁻¹ s⁻¹. Also, a half-maximal response in assay [3] (EC50) required 16.3 ng/mL. The “CD3-NFAT Activity by CD3 mAb” value in assay [4] is at most 50 % SP34.

B13: Hu192A7B9-15 (antibody, V domains shown)
VH: EVQLQESGPGLVKPSETLSLTCTVSGGSISSYNVHWVRQPPGKGLEWMGRMRYNGDTSYNSALKSRLTISRDTSKNQFSLKLSSVTAADTAVYYCARGPRGGYYSALFDYWGQGTMVTVSS
VL: DIQMTQSPSSLSASVGDRVTITCKASQNINRYLNWYQQKPGKAPKLLISIANSLQTGIPSRFSGSGSGTDFTLTISSLQPEDFATYYCLQHNSWYTFGQGTKLEIK
notes: humanized mAb
Consider B13, for which, in assay [2], the Kd stood at 40.9 nM, the koff is 0.00741 s⁻¹ and the kon is 181000 M⁻¹ s⁻¹. This molecule came in with an EC50 in assay [3] of 28.8 ng/mL. Further, the “CD3-NFAT Activity by CD3 mAb” value in assay [4] was over 50 % SP34.

B14: Hu192A7B9-13 (antibody, V domains shown)
VH: EVQLQESGPGLVKPSETLSLTCTVSGGSISSYNVHWIRQPPGKGLEWIGRMRYNGDTSYNSALKSRVTISVDTSKNQFSLKLSSVTAADTAVYYCARGPRGGYYSALFDYWGQGTMVTVSS
VL: DIQMTQSPSSLSASVGDRVTITCKASQNINRYLNWYQQKPGKAPKLLISIANSLQTGIPSRFSGSGSGTDFTLTISSLQPEDFATYYCLQHNSWYTFGQGTKLEIK
notes: humanized mAb
Consider B14, for which, in assay [2], the Kd is 22 nM, the koff amounted to 0.00631 s⁻¹ and the kon was 286000 M⁻¹ s⁻¹. In assay [3], this molecule displayed an EC50 of 14.5 ng/mL. In addition, the “CD3-NFAT Activity by CD3 mAb” value in assay [4] was at most 50 % SP34.
